The values below are quoted from earlier work in US20230107428A1 (priority 2021, published 2023).

The subject of data set [1] is hepatitis B virus. To be noted: in vitro; cited from earlier work.
The target in data set [2] is T1, interleukin-6 receptor (Homo sapiens, UniProt P08887).
T1 construct: host or cells: patients (endogenous receptor)
T1 sequence (P08887 20-468): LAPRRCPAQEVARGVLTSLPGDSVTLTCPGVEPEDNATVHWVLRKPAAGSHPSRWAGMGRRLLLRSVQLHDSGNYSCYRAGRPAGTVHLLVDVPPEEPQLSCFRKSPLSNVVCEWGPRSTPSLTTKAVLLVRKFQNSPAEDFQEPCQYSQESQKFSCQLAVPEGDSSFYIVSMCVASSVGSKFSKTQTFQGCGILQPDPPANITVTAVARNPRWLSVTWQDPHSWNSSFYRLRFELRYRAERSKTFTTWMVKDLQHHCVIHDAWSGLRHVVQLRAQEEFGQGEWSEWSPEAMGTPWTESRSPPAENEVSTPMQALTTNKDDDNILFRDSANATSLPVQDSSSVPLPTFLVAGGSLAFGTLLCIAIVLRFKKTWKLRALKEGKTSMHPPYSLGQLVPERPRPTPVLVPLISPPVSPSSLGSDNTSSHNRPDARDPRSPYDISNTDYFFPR
Conditions: tocilizumab or sarilumab, intensive care units; cited from earlier work.

Consider `CC(=O)O[C@H]([C@@H]1C[C@@H](C)C2=C3C=C[C@H]4[C@@]5(C)CCC(=O)C(C)(C)[C@@H]5CC[C@]4(C)[C@@]3(C)C[C@@H]2O1)C(C)(C)O` [Alisol O], for which the “inhibition of hepatitis B virus” value in data set [1] is listed as “could inhibit”.

On to tocilizumab [reference compound], for which, in data set [2], the “survival in severe patients” value is recorded as “increased”.

B1: sarilumab (antibody, chains of the INN, looked up, V domains shown)
VH: EVQLVESGGGLVQPGRSLRLSCAASRFTFDDYAMHWVRQAPGKGLEWVSGISWNSGRIGYADSVKGRFTISRDNAENSLFLQMNGLRAEDTALYYCAKGRDSFDIWGQGTMVTVSS
VL: DIQMTQSPSSVSASVGDRVTITCRASQGISSWLAWYQQKPGKAPKLLIYGASSLESGVPSRFSGSGSGTDFTLTISSLQPEDFASYYCQQANSFPYTFGQGTKLEIK
In the case of B1, in data set [2], the “survival in severe patients” value is reported as “increased”.
